Ends that are not written are not given here. * marks the point of attachment. Palmitoyl = CCCCCCCCCCCCCCCC(=O)*
What was measured:
Type in all cases: physicochemical
[1] = Test of uniformity of concentration on batch CK9; conditions: batch CK9, 15 random samples, each injected three times
Procedure: According to the Pharmacopoeia, powders for parenteral use are subjected to a requirement of uniformity of concentration. The test must be performed on 10 random samples, which are analysed individually for the active ingredient using an appropriate analytical method. The preparation satisfies the test if the concentration of each sample is between 85 and 115% of the average concentration.
The test was performed on 15 random samples, taken up in solution and diluted in 80% acetic acid according to a standardized operational procedure, so as always to inject an identical proportion of about 15 μg, defined during preparation of the calibration curve. Each sample was injected three times, the concentration of each active ingredient corresponding to the average of the three values obtained.

[2] = Sterilizing filtration (0.22 μm) of lipopeptide mixtures; conditions: for yield (%): batch CK9, 20 mg/ml in 80% acetic acid, filtered 0.22 μm, range reflects precision of determination
Procedure: The solutions obtained were subjected to ultrasonic action to encourage the dispersion of the aggregates, mixed to give a final volume of 5.5 ml, and the mixture was again subjected to ultrasonic action, then diluted with 9.5 ml of water to obtain a final concentration of about 8% in acetic acid (AcOH), compatible with a good quality freeze-drying. This solution, after a final period in the ultrasonic bath, was filtered over Millipore Millex GV SLGV 0130S filters (0.22 μm).
An ultrasonic step was used at each stage to ensure effective dispersion of the aggregates.
The solutions were mixed, then filtered over Millex GV SLGV 0130S filters (0.22 μm). […] The receiver vessels and the filter were then rinsed with water, in sufficient quantity to give a final acetic acid concentration of 8% (final volume 15 ml as before), so as to ensure the quality of the freeze-drying step.
The procedure used was the same as for the previous batch, apart from the quantities. The solution of the peptide (20 mg/ml in 80% acetic acid) was filtered in 4 portions, changing the filter before its saturation, using identical membranes (Durapore STERIVEX GV 0.22 μm sterile units (Millipore)), then made up with the water used for rinsing the filters and for dilution. The final volume was 1516 ml (including 154 ml of acetic acid: 10% in final solution). The portion volume was 1.3 ml per dose. The apportioned doses were freeze-dried, and analysed using a validated HPLC determination method.
This set of peptides was synthesized as described in the previous examples.
This set of peptides was synthesized as described in example 1. The mixture of solutions was performed on a sample of 5 mg of each peptide previously dissolved at a concentration of 20 mg/ml in 80% acetic acid then mixed in the following order: 1: LSA3 NRI; 2: LSA3 NRII; 3: LSA3 CT1; 4 LSA3 RE.

[3] = Solubility of the lipopeptides in pure water
[4] = batch CK2, simple mixture diluted to about 8% acetic acid, 0.22 μm filter
[5] = batch CK3, each lipopeptide in 80% acetic acid, mixed then filtered 0.22 μm

Substance	Observed deviation [1] [%]	Filtration yield (%) after mixing [2, 4] [%]	Filtration yield (%) after mixing [2, 5]	yield (%) [2]	appearance of the solution in pure water [3]
EWRFDSRLAFHHVARELHPEYFKNK(Pam)-NH2 (EWRFDSRLAFHHVARELHPEYFKNK(Palmitoyl)-NH2; N-terminus assumed; SMILES CCCCCCCCCCCCCCCC(=O)NCCCC[C@H](NC(=O)[C@H](CC(N)=O)NC(=O)[C@H](CCCCN)NC(=O)[C@H](Cc1ccccc1)NC(=O)[C@H](Cc1ccc(O)cc1)NC(=O)[C@H](CCC(=O)O)NC(=O)[C@@H]1CCCN1C(=O)[C@H](Cc1c[nH]cn1)NC(=O)[C@H](CC(C)C)NC(=O)[C@H](CCC(=O)O)NC(=O)[C@H](CCCNC(=N)N)NC(=O)[C@H](C)NC(=O)[C@@H](NC(=O)[C@H](Cc1c[nH]cn1)NC(=O)[C@H](Cc1c[nH]cn1)NC(=O)[C@H](Cc1ccccc1)NC(=O)[C@H](C)NC(=O)[C@H](CC(C)C)NC(=O)[C@H](CCCNC(=N)N)NC(=O)[C@H](CO)NC(=O)[C@H](CC(=O)O)NC(=O)[C@H](Cc1ccccc1)NC(=O)[C@H](CCCNC(=N)N)NC(=O)[C@H](Cc1c[nH]c2ccccc12)NC(=O)[C@@H](N)CCC(=O)O)C(C)C)C(N)=O) [NEF 182]	5.84	92	quantitative	96.23-102.05%	
TQGYFPDWQNYTPGPGVRYPLTFGWCYKLVPK(Pam)-NH2 (TQGYFPDWQNYTPGPGVRYPLTFGWCYKLVPK(Palmitoyl)-NH2; N-terminus assumed; SMILES CCCCCCCCCCCCCCCC(=O)NCCCC[C@H](NC(=O)[C@@H]1CCCN1C(=O)[C@@H](NC(=O)[C@H](CC(C)C)NC(=O)[C@H](CCCCN)NC(=O)[C@H](Cc1ccc(O)cc1)NC(=O)[C@H](CS)NC(=O)[C@H](Cc1c[nH]c2ccccc12)NC(=O)CNC(=O)[C@H](Cc1ccccc1)NC(=O)[C@@H](NC(=O)[C@H](CC(C)C)NC(=O)[C@@H]1CCCN1C(=O)[C@H](Cc1ccc(O)cc1)NC(=O)[C@H](CCCNC(=N)N)NC(=O)[C@@H](NC(=O)CNC(=O)[C@@H]1CCCN1C(=O)CNC(=O)[C@@H]1CCCN1C(=O)[C@@H](NC(=O)[C@H](Cc1ccc(O)cc1)NC(=O)[C@H](CC(N)=O)NC(=O)[C@H](CCC(N)=O)NC(=O)[C@H](Cc1c[nH]c2ccccc12)NC(=O)[C@H](CC(=O)O)NC(=O)[C@@H]1CCCN1C(=O)[C@H](Cc1ccccc1)NC(=O)[C@H](Cc1ccc(O)cc1)NC(=O)CNC(=O)[C@H](CCC(N)=O)NC(=O)[C@@H](N)[C@@H](C)O)[C@@H](C)O)C(C)C)[C@@H](C)O)C(C)C)C(N)=O) [NEF 117]	4.67	81	quantitative	109.08-116.72%	slightly opalescent solution
TRPNNNTRKSIHIGPGRAFYATGEIIGDIRQAHK(Palmitoyl)-NH2 [ENV]	14.95	95	quantitative	104.71-110.89%	
VGFPVTPQVPLRPMTYKAAVDLSHFLKEKGGLK(Pam)-NH2 [NEF 66]	4.23	95	quantitative	89.14-94.6%	

Reference: US7476386B1 (priority 1997, dated 2009)
